According to US20210139548A1 (published 2021):
*1 amine or outer side, *2 acyl side, *3 side chain or, on linkers, in order; H or OH if unused. Side-chain parts run from the residue outwards. The star is where a group is joined. C18 diacid = O=C(O)CCCCCCCCCCCCCCCCC(=O)*; γGlu = O=C(O)[C@H](CCC(=O)[*:2])N[*:1]; Isovaleryl = CC(C)CC(=O)*; AEEA = NCCOCCOCC(=O)O

T1: human neuropeptide Y2 receptor (human, UniProt P49146 1-381)
T1 construct: whole, on cells; also called hNPY2 receptor; hNPY2-R
T1 sequence (looked up): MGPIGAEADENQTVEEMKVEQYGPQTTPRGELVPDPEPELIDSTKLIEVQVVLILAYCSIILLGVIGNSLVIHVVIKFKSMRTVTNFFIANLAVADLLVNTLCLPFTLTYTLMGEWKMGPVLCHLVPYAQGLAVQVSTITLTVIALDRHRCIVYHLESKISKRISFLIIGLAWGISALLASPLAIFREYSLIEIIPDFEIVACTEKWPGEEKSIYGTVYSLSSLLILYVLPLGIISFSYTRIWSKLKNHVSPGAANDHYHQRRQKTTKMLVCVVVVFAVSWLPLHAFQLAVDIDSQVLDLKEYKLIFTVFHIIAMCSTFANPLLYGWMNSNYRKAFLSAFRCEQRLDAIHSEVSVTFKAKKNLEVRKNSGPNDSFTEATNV

B1: Compound 100 (peptide)
peptide: Isovaleryl-APAK([AEEA-AEEA-γGlu-C18 diacid])PPEDASPEELQRYYVSLRHYYNWLTRQRY-NH2
SMILES: CC(C)CC(=O)N[C@@H](C)C(=O)N1CCC[C@H]1C(=O)N[C@@H](C)C(=O)N[C@@H](CCCCNC(=O)COCCOCCNC(=O)COCCOCCNC(=O)CC[C@H](NC(=O)CCCCCCCCCCCCCCCCC(=O)O)C(=O)O)C(=O)N1CCC[C@H]1C(=O)N1CCC[C@H]1C(=O)N[C@@H](CCC(=O)O)C(=O)N[C@@H](CC(=O)O)C(=O)N[C@@H](C)C(=O)N[C@@H](CO)C(=O)N1CCC[C@H]1C(=O)N[C@@H](CCC(=O)O)C(=O)N[C@@H](CCC(=O)O)C(=O)N[C@@H](CC(C)C)C(=O)N[C@@H](CCC(N)=O)C(=O)N[C@@H](CCCNC(=N)N)C(=O)N[C@@H](Cc1ccc(O)cc1)C(=O)N[C@@H](Cc1ccc(O)cc1)C(=O)N[C@H](C(=O)N[C@@H](CO)C(=O)N[C@@H](CC(C)C)C(=O)N[C@@H](CCCNC(=N)N)C(=O)N[C@@H](Cc1c[nH]cn1)C(=O)N[C@@H](Cc1ccc(O)cc1)C(=O)N[C@@H](Cc1ccc(O)cc1)C(=O)N[C@@H](CC(N)=O)C(=O)N[C@@H](Cc1c[nH]c2ccccc12)C(=O)N[C@@H](CC(C)C)C(=O)N[C@H](C(=O)N[C@@H](CCCNC(=N)N)C(=O)N[C@@H](CCC(N)=O)C(=O)N[C@@H](CCCNC(=N)N)C(=O)N[C@@H](Cc1ccc(O)cc1)C(N)=O)[C@@H](C)O)C(C)C
B2: Compound 101 (peptide)
peptide: Isovaleryl-APEK([AEEA-AEEA-γGlu-C18 diacid])PEEDATPEELQRYYVELRHYYNWLTRQRY-NH2
SMILES: CC(C)CC(=O)N[C@@H](C)C(=O)N1CCC[C@H]1C(=O)N[C@@H](CCC(=O)O)C(=O)N[C@@H](CCCCNC(=O)COCCOCCNC(=O)COCCOCCNC(=O)CC[C@H](NC(=O)CCCCCCCCCCCCCCCCC(=O)O)C(=O)O)C(=O)N1CCC[C@H]1C(=O)N[C@@H](CCC(=O)O)C(=O)N[C@@H](CCC(=O)O)C(=O)N[C@@H](CC(=O)O)C(=O)N[C@@H](C)C(=O)N[C@H](C(=O)N1CCC[C@H]1C(=O)N[C@@H](CCC(=O)O)C(=O)N[C@@H](CCC(=O)O)C(=O)N[C@@H](CC(C)C)C(=O)N[C@@H](CCC(N)=O)C(=O)N[C@@H](CCCNC(=N)N)C(=O)N[C@@H](Cc1ccc(O)cc1)C(=O)N[C@@H](Cc1ccc(O)cc1)C(=O)N[C@H](C(=O)N[C@@H](CCC(=O)O)C(=O)N[C@@H](CC(C)C)C(=O)N[C@@H](CCCNC(=N)N)C(=O)N[C@@H](Cc1c[nH]cn1)C(=O)N[C@@H](Cc1ccc(O)cc1)C(=O)N[C@@H](Cc1ccc(O)cc1)C(=O)N[C@@H](CC(N)=O)C(=O)N[C@@H](Cc1c[nH]c2ccccc12)C(=O)N[C@@H](CC(C)C)C(=O)N[C@H](C(=O)N[C@@H](CCCNC(=N)N)C(=O)N[C@@H](CCC(N)=O)C(=O)N[C@@H](CCCNC(=N)N)C(=O)N[C@@H](Cc1ccc(O)cc1)C(N)=O)[C@@H](C)O)C(C)C)[C@@H](C)O
B3: Compound 102 (peptide)
peptide: Isovaleryl-APEK([AEEA-AEEA-γGlu-C18 diacid])PEEDASPEELQRYYVTLRHYYNWLTRQRY-NH2
SMILES: CC(C)CC(=O)N[C@@H](C)C(=O)N1CCC[C@H]1C(=O)N[C@@H](CCC(=O)O)C(=O)N[C@@H](CCCCNC(=O)COCCOCCNC(=O)COCCOCCNC(=O)CC[C@H](NC(=O)CCCCCCCCCCCCCCCCC(=O)O)C(=O)O)C(=O)N1CCC[C@H]1C(=O)N[C@@H](CCC(=O)O)C(=O)N[C@@H](CCC(=O)O)C(=O)N[C@@H](CC(=O)O)C(=O)N[C@@H](C)C(=O)N[C@@H](CO)C(=O)N1CCC[C@H]1C(=O)N[C@@H](CCC(=O)O)C(=O)N[C@@H](CCC(=O)O)C(=O)N[C@@H](CC(C)C)C(=O)N[C@@H](CCC(N)=O)C(=O)N[C@@H](CCCNC(=N)N)C(=O)N[C@@H](Cc1ccc(O)cc1)C(=O)N[C@@H](Cc1ccc(O)cc1)C(=O)N[C@H](C(=O)N[C@H](C(=O)N[C@@H](CC(C)C)C(=O)N[C@@H](CCCNC(=N)N)C(=O)N[C@@H](Cc1c[nH]cn1)C(=O)N[C@@H](Cc1ccc(O)cc1)C(=O)N[C@@H](Cc1ccc(O)cc1)C(=O)N[C@@H](CC(N)=O)C(=O)N[C@@H](Cc1c[nH]c2ccccc12)C(=O)N[C@@H](CC(C)C)C(=O)N[C@H](C(=O)N[C@@H](CCCNC(=N)N)C(=O)N[C@@H](CCC(N)=O)C(=O)N[C@@H](CCCNC(=N)N)C(=O)N[C@@H](Cc1ccc(O)cc1)C(N)=O)[C@@H](C)O)[C@@H](C)O)C(C)C
B4: Compound 103 (peptide)
peptide: Isovaleryl-APAK([AEEA-AEEA-γGlu-C18 diacid])PEEDASEEELQRYYVSLRHYYNWLTRQRY-NH2
SMILES: CC(C)CC(=O)N[C@@H](C)C(=O)N1CCC[C@H]1C(=O)N[C@@H](C)C(=O)N[C@@H](CCCCNC(=O)COCCOCCNC(=O)COCCOCCNC(=O)CC[C@H](NC(=O)CCCCCCCCCCCCCCCCC(=O)O)C(=O)O)C(=O)N1CCC[C@H]1C(=O)N[C@@H](CCC(=O)O)C(=O)N[C@@H](CCC(=O)O)C(=O)N[C@@H](CC(=O)O)C(=O)N[C@@H](C)C(=O)N[C@@H](CO)C(=O)N[C@@H](CCC(=O)O)C(=O)N[C@@H](CCC(=O)O)C(=O)N[C@@H](CCC(=O)O)C(=O)N[C@@H](CC(C)C)C(=O)N[C@@H](CCC(N)=O)C(=O)N[C@@H](CCCNC(=N)N)C(=O)N[C@@H](Cc1ccc(O)cc1)C(=O)N[C@@H](Cc1ccc(O)cc1)C(=O)N[C@H](C(=O)N[C@@H](CO)C(=O)N[C@@H](CC(C)C)C(=O)N[C@@H](CCCNC(=N)N)C(=O)N[C@@H](Cc1c[nH]cn1)C(=O)N[C@@H](Cc1ccc(O)cc1)C(=O)N[C@@H](Cc1ccc(O)cc1)C(=O)N[C@@H](CC(N)=O)C(=O)N[C@@H](Cc1c[nH]c2ccccc12)C(=O)N[C@@H](CC(C)C)C(=O)N[C@H](C(=O)N[C@@H](CCCNC(=N)N)C(=O)N[C@@H](CCC(N)=O)C(=O)N[C@@H](CCCNC(=N)N)C(=O)N[C@@H](Cc1ccc(O)cc1)C(N)=O)[C@@H](C)O)C(C)C
B5: Compound 107 (peptide)
peptide: Isovaleryl-APEK([AEEA-AEEA-γGlu-C18 diacid])PEEDASPEELQKYYVALRHYYNWLTRQRY-NH2
SMILES: CC(C)CC(=O)N[C@@H](C)C(=O)N1CCC[C@H]1C(=O)N[C@@H](CCC(=O)O)C(=O)N[C@@H](CCCCNC(=O)COCCOCCNC(=O)COCCOCCNC(=O)CC[C@H](NC(=O)CCCCCCCCCCCCCCCCC(=O)O)C(=O)O)C(=O)N1CCC[C@H]1C(=O)N[C@@H](CCC(=O)O)C(=O)N[C@@H](CCC(=O)O)C(=O)N[C@@H](CC(=O)O)C(=O)N[C@@H](C)C(=O)N[C@@H](CO)C(=O)N1CCC[C@H]1C(=O)N[C@@H](CCC(=O)O)C(=O)N[C@@H](CCC(=O)O)C(=O)N[C@@H](CC(C)C)C(=O)N[C@@H](CCC(N)=O)C(=O)N[C@@H](CCCCN)C(=O)N[C@@H](Cc1ccc(O)cc1)C(=O)N[C@@H](Cc1ccc(O)cc1)C(=O)N[C@H](C(=O)N[C@@H](C)C(=O)N[C@@H](CC(C)C)C(=O)N[C@@H](CCCNC(=N)N)C(=O)N[C@@H](Cc1c[nH]cn1)C(=O)N[C@@H](Cc1ccc(O)cc1)C(=O)N[C@@H](Cc1ccc(O)cc1)C(=O)N[C@@H](CC(N)=O)C(=O)N[C@@H](Cc1c[nH]c2ccccc12)C(=O)N[C@@H](CC(C)C)C(=O)N[C@H](C(=O)N[C@@H](CCCNC(=N)N)C(=O)N[C@@H](CCC(N)=O)C(=O)N[C@@H](CCCNC(=N)N)C(=O)N[C@@H](Cc1ccc(O)cc1)C(N)=O)[C@@H](C)O)C(C)C
B6: Compound 108 (peptide)
peptide: Isovaleryl-APEK([AEEA-AEEA-γGlu-C18 diacid])PEEDASPEELQRYYVELRHYYNWLTRQRY-NH2
SMILES: CC(C)CC(=O)N[C@@H](C)C(=O)N1CCC[C@H]1C(=O)N[C@@H](CCC(=O)O)C(=O)N[C@@H](CCCCNC(=O)COCCOCCNC(=O)COCCOCCNC(=O)CC[C@H](NC(=O)CCCCCCCCCCCCCCCCC(=O)O)C(=O)O)C(=O)N1CCC[C@H]1C(=O)N[C@@H](CCC(=O)O)C(=O)N[C@@H](CCC(=O)O)C(=O)N[C@@H](CC(=O)O)C(=O)N[C@@H](C)C(=O)N[C@@H](CO)C(=O)N1CCC[C@H]1C(=O)N[C@@H](CCC(=O)O)C(=O)N[C@@H](CCC(=O)O)C(=O)N[C@@H](CC(C)C)C(=O)N[C@@H](CCC(N)=O)C(=O)N[C@@H](CCCNC(=N)N)C(=O)N[C@@H](Cc1ccc(O)cc1)C(=O)N[C@@H](Cc1ccc(O)cc1)C(=O)N[C@H](C(=O)N[C@@H](CCC(=O)O)C(=O)N[C@@H](CC(C)C)C(=O)N[C@@H](CCCNC(=N)N)C(=O)N[C@@H](Cc1c[nH]cn1)C(=O)N[C@@H](Cc1ccc(O)cc1)C(=O)N[C@@H](Cc1ccc(O)cc1)C(=O)N[C@@H](CC(N)=O)C(=O)N[C@@H](Cc1c[nH]c2ccccc12)C(=O)N[C@@H](CC(C)C)C(=O)N[C@H](C(=O)N[C@@H](CCCNC(=N)N)C(=O)N[C@@H](CCC(N)=O)C(=O)N[C@@H](CCCNC(=N)N)C(=O)N[C@@H](Cc1ccc(O)cc1)C(N)=O)[C@@H](C)O)C(C)C

Molecular target: T1, human neuropeptide Y2 receptor
Experiment: radioligand competition (125I-PYY(1-36)), hNPY2R membranes
Procedure, shortened: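 Commercial human Y2 receptor membranes (0.5 μg protein/well) were incubated with peptide for 2 h at room temperature in 50 mM HEPES, 5 mM MgCl₂, 1 mM CaCl₂, pH 7.4, with 0.2% ovalbumin. Bound radioligand was separated on PEI-soaked GF/C filters and counted by scintillation, and IC₅₀ came from nonlinear sigmoidal regression.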

Binder	Ki [nM]
B1	0.44
B2	3.29
B3	0.87
B4	0.95
B5	1.1
B6	0.99
